Patent US20120156203A1 (Genentech, published 2012)

T1: mouse IL13 (mouse, UniProt P20109 22-131, limits assumed)
T1 construct: also called E. coli expressed mouse IL13 (R&D Systems); murine IL13
T1 sequence: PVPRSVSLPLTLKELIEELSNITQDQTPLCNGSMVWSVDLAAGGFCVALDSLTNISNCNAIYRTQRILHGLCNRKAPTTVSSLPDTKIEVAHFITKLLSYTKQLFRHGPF

T2: 12-mer peptide of human IL13, YCAALESLINVS (human, synthesized via SPOT on cellulose membrane)
T2 peptide: YCAALESLINVS

B1: anti-IL13 monoclonal antibody 227-26 (antibody, V domains shown)
VH: QVQLQQSGDDLVLPGASVKLSCKASGYTFTSYWINWIKQRPGQGLEWIGHIAPGSGSTYFNEMFKGKATLTVDTSSSTAYIQLSSLSSEDSAVYFCARSDIFLSYAMDYWGQGTSVTVSS
VL: DVLMTQTPLSLPVSLGDQASISCRSSQSIVHSNGNTYLQWYLQKPGQSPKLLIYKVSNRFSGVPDRFSGSGSGTDFTLKISRVEAEDLGVYYCFQGSHVPYTFGGGTKLEIK
notes: also called hybridoma ATCC PTA-5654
B2: anti-IL13 monoclonal antibody 228B/C-1 (antibody, V domains shown)
VH: QVQLQESGPGLVAPSQSLSITCTVSGFSLNAYSVNWVRQPPGKGLEWLGMIWGDGKIVYNSALKSRLNISKDSSKSQVFLKMSSLQSDDTARYYCAGDGYYPYAMDNWGHGTSVTVSS
VL: NIVLTQSPASLAVSLGQRATISCRASKSVDSYGNSFMHWYQQKPGQPPKLLIYLASNLESGVPARFSGSGSRTDFTLTIDPVEADDAASYYCQQNNEDPRTFGGGTKLEIK
B3: chimeric Fab of 228B/C (Fab, V domains shown)
VH: B2 VH
VL: B2 VL
modifications: Used labeled in the competition assay of paragraph 260; the label is not named.
notes: also called chimeric clone

How the values were obtained:
[1] = biological target: T1, mouse IL13; assay: ELISA on plate-coated E. coli expressed mouse IL13
Procedure: (§1) The reactivity of various anti-IL13 monoclonal antibodies was tested by ELISA. Different wells of 96-well microtest plates were coated with either E. coli expressed non-glycosylated human IL13 (R&D Systems), 293T cell expressed glycosylated MT-IL13/Fc, or E. coli expressed mouse IL13 (R&D Systems) by the addition of 100 μL of IL13 protein at 0.1 μg/mL in PBS. After overnight incubation at room temperature, the wells were treated with PBSTB (PBST containing 2% BSA) to saturate the remaining binding sites. The wells were then washed with PBST.
(§2) One hundred microliters of two-fold serially diluted anti-IL13 MAbs (0.5 μg/mL (3.33 nM) to […] (0.00033 nM)) were added to the wells for 1 hour at room temperature. An anti-IL13 MAb JES-5A2 from (BD Biosciences-Pharmingen, San Diego, Calif.) was also tested as a positive control. This antibody was generated by using E. coli expressed human IL13 as immunogen. An isotype-matched mouse anti-HIV-1 gp120 MAb was used as irrelevant negative control. The wells were then washed with PBST. Bound antibody was detected by incubation with diluted HRP-goat anti-mouse IgG (Fc) (Jackson ImmunoResearch) for 1 hour at room temperature. Peroxidase substrate solution was then added for color development as described above. The OD₄₅₀ was measured using an ELISA reader.

[2] = biological target: T3, human IL13 (human, UniProt P35225 35-146); assay: ELISA; wells coated with E. coli expressed non-glycosylated human IL13 (0.1 µg/mL); bound MAb detected with HRP-goat anti-mouse IgG (Fc); OD 450 nm
T3 construct: also called E. coli expressed non-glycosylated human IL13 (R&D Systems); recombinant IL13
T3 sequence (P35225 other isoform, or with tags, fused parts or gaps limits assumed): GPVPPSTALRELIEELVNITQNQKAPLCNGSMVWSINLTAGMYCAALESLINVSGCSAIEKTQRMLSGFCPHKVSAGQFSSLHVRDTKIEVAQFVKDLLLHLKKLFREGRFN
Procedure: as §1, §2

[3] = biological target: T3, human IL13; assay: cell-based or functional assay
[4] = biological target: T2, 12-mer peptide of human IL13, …; assay: peptide spot analysis on cellulose membrane
Text: This epitope was further confirmed by peptide spot analysis. The entire human IL13 peptide was scanned with a series of overlapping 12-mer peptides synthesized via SPOT on cellulose membrane. The only anti-IL13 MAb reactive peptide was identified as a 12-mer peptide of amino acid #44-56, […] (SEQ ID NO 19), which is overlapping with the region identified through domain swapping experiments.

[5] = biological target: T4, IL-13 (antigen captured on the plate in the Fab ELISAs of Examples 9 and 10) (UniProt P35225 35-146); assay: ELISA; IL-13 captured on the plate in a limiting amount; Fab titrated 1:3; detected with a secondary antibody specific for Fab; A560 nm
T4 construct: also called the antigen IL-13
T4 sequence (P35225 35-146 limits assumed): as the sequence (P35225 other isoform, or with tags, fused parts or gaps limits assumed) above, with R110Q counted along it

[6] = biological target: T4, IL-13 (antigen captured on the plate in …); assay: as above; remark: listed apart in the source
[7] = biological target: T4, IL-13 (antigen captured on the plate in …); assay: as above; remark: listed apart in the source
[8] = biological target: T4, IL-13 (antigen captured on the plate in …); assay: ELISA; IL-13 captured on the plate in a limiting amount; Fab titrated 1:3; detected with a secondary antibody specific for Fab; A410 nm
[9] = biological target: T4, IL-13 (antigen captured on the plate in …); assay: ELISA; IL-13 captured on the plate in a limiting amount; Fab titrated 1:3; detected with a secondary antibody specific for Fab; A 560 nm
[10] = biological target: T4, IL-13 (antigen captured on the plate in …); assay: competition ELISA; IL-13 captured on the plate; purified Fab pre-mixed with a constant concentration of labeled chimeric anti-IL-13 Fab (228 B/C #3); Abs 590 nm of bound labeled Fab
Procedure: To confirm that these combinatorial candidates maintained function, a competition assay was performed. For this assay, IL-13 was captured on an ELISA plate. The candidates, which are purified Fabs, were pre-mixed in varying concentrations to a constant concentration of labeled chimeric anti-IL-13 Fab. This mixture was added to the ELISA plate. The labeled chimeric anti-IL-13 capable of binding to the plate-bound IL-13 were detected.

Row | Binder | binding result [1] | EC50 (read off the curve) [2] | molar stoichiometric ratio (MAb:IL13) for complete inhibition, CD14 and CD23 assays [3] | molar stoichiometric ratio between 228B/C-1 and IL13 for complete inhibition, Stat6 assay [3] | binding result [4] | EC50 (read off the curve) [5] | EC50 (read off the curve) [6] | EC50 (read off the curve) [7] | EC50 (read off the curve) [8] | EC50 (read off the curve) [9] | IC50 (read off the curve) [10]
1 | B1 | no binding | ~20 pM |  |  |  |  |  |  |  |  | 
2 | B2 |  | ~10 pM | 0.5 MAb:IL13 molar ratio | ~0.5 MAb:IL13 molar ratio | binds |  |  |  |  |  | 
3 | B3 |  |  |  |  |  | ~10 ng/mL | ~7 ng/mL | ~4 ng/mL | ~20 ng/mL | ~7 ng/mL | ~90 ng/mL
